Measurements: the nanobody polyreactivity screen of Harvey et al. (2022)

Assay: yeast display, Sf9 membrane polyspecificity reagent, FACS + sequencing; frameworks hold sequencing errors
How it was run: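 In a synthetic yeast display library (Saccharomyces cerevisiae BJ5465), nanobody expression was induced with galactose for 36–48 hours. FACS gates were set low and high (top ~1%) using anti-HA fluorescence for expression and streptavidin fluorescence for binding of the Sf9 membrane reagent. Each polyreactivity label is drawn from the gate of origin.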

Sequence	polyreactivity (PSR sort gate)
QVQLVESGGGLVQAGGSLRLSCAASGGTFVTYAMGWYRQAPGKERELVAAITTGGSTYYADSVKGRFTISRDNAKNSVYLQMISLKPEDTAVYYCAAVYTGSGKRYYKGYYWGQGTQVTVSS	low polyreactivity
QVQLVESGRGLVQAGGSLRLSCAGSGSIFEGYVMGWSRQAPGKEMELVAAITSGGGSTYYADSVKGRFTSSRDNAKNTVYLQMISVKPVDTALYYCNAVYRWVYRSYEYWGQGTQGTVSS	high polyreactivity
QVQLVESGGGLVQAGGRLRLSCAASGSILNFYAMGWYRQAPGKEREFVASISWDGASTYYADSVKGRFTISRDNAKNTVYLPMNSLKPEDTAVYYCAATRYYSFWGQGTQVTVSS	low polyreactivity
QVQLVESGGGLVQAGGSLRLSCADSGSTFTSNAMRWYRQAPGKEREFVAAINWGGSITYYADSVKGRFTISRDNAKNTVYLQMNSLKPEDTAVYYCAAETYYDTYYPEGDYWGQGTQVTVSS	low polyreactivity
QVQLVESGGGLVQAGGSLRLSCAASGRIFAAYAMGWYRQAPGKERELVAAISWSGANTYYADSVKGRFTISRDNAKNTVYLQMNSLKPEDTAVYYCATLSKSYGVRRYKSDYWGQGTQVTVSS	high polyreactivity
QVQLVESGGGLVQAGGSLRLSCAASGFIFGRYTMGWYRQAPGKERELVAAITYSGNTYYADSVKGRFTISRDNAKNTVYLQMNSLKPEDTAVYYCNAYGANFRAFRNAYKYWGQGTQVTVSS	high polyreactivity
QVQLVESGGGIVQAGGSLRLSCAASGFIFVANAMGRYRQAPGKERQLVAAISGSGGSTFYADSVKGRFTISRDNAKNTVNLQMNSLKPEDTAGYYCNADAYDYSGYFEYDCWGQGTQETVSS	high polyreactivity
QVQLVESAGGVVQAGGSLRKSCAASLGWYRQAPGKERELVATITSDAGTNYADSVKGRFTISRDNAKNTVYLQMNSLKPEDTAVYYCAATPPYRVYGVNYWGQGTQVTVSS	low polyreactivity
QVQLVESGGGLVQAGGSLRLSCAASGRTFRTYTMGWYRQAPGKEREFVAAIDRTGGSTYYADSVKGRFTISRDNAKNTVYLQMNSLKPEDTAVYYCAARFGSGFNYWGQGTQVTVSS	high polyreactivity
QVQLVESGGGLVQAGGSLRVSCAASGSIFLIYGMGWYRQAPGKERELVAAITARGGSTYYADSVKGRFTISRDNAKNTVYLQMNSLKPEDTAVYYCNADGYPDVGAGTYGYWGLGTQVTVSS	low polyreactivity
QVQLVESGGGLVQAGGSLRLSCAASGFIFPDYAMGWYRQAPGKERELVAAISFRDGSTYYADSVKGRFTISRDNAKNTVYFQINSLKPEDTAVYYCNAGPQYDVHEYYYWGQGSQVTVSS	low polyreactivity
QVQLVESGGGLVQAGGSLRLSCAATGSIFSYYDMAWYRQAPGNERELVAGISRGGSTNYADSVKGRFTISRDNGKNTVYLQMNSLKEEDTAVYYCNADQSSRTYPFRRSRRSWLYGYWGQGTQVTVSS	low polyreactivity
QVQLVESGGGIVQAGGSIRLSCAASGYTFAKYAMGWYRQAPGKERELVAAITFSDTSTYYADSVKGRFTISRDNAKNTVYLQMNSLKPEDTAVYYCAVVGPYYSRFGGRYYYWGQGTQVTVSS	low polyreactivity
QVQLVESGGGLVQAGGSLRLSCAASGIIFSDYGMGWDRQAPGKERELVAAINSGGRTYSADSVKGRFTISRDNAKNTVYLQMNSLKPEDTAVYYCAADTQGSRYDYWGQGTQVTVSS	high polyreactivity
QVQLVESGGGLVQAGGSLRLSCPASGRIFKWYAMGWYRPAPGKERELVAAISWSGGRTYYADSVKGRFTISRDNAKNTVYLQMHSVKPEDTAVYYCAAAIRYRNYVYLYDYWGQGTQVTVSS	high polyreactivity
QVQRLESVGRLVQAGGSLRLSSAPSGIIFRGYVMGWYIQARGKESELVAAITSSTGSTYYADSVKGRFTISRENAKNTGYLLMNILKPEDTAVYYCNVDYYVPNDGYEYWGQGTQVTVSS	low polyreactivity
QVQLVESGGGLVQAGGSLRLSCAASGSTFWKYIMGWYRQAPGKERELVAAITTRGGSTYADSVKGRFTISRDNAKNTVYLQMNSLKPEDTAVYYWAATKFWYYGYDYWGQGTQVTVSS	low polyreactivity
QVHLVESGGGLVQAGGSLRISCAASGSNFSYYARGWYRQAPGKESELVAAISQSGGTTYYADSVKGRFTISRDHAKNTVYLQMNCLKPEDTAVYYCAARAPSSFDTQYYYWGLGTQVTVSS	low polyreactivity
QVQLVESGGGLVQAGGSLRLSCAASGLIFTYYAMGWYRQAPGKERELVAGISSGTNTNYADSVKGRFTISRDNAKNTVYLQMNSLKPEDTAVYYCAKTRGYQFVAYGYWGQGTQVTVSS	low polyreactivity
QVQLVESGAGLVQAGGSLRLSCAASGRTFWSYAMGWYRQAPGKERELVAAIRTSDGITYYADSVKGRFTISRDNAKNTVYLQMNSLKPEDTAVYYCAAENWYNYDYWGQGTQVSVSS	low polyreactivity
QVQLVESGGGLVQAGGSLRLSCAASGRTSLGNAMGWYRQAPGKERELVAAISGSGGSTYYADSVKGRFTISRDNAKNTVYLQMNSLKPEDTAVYYCNKKLYGYQHYYWYYYWGQGTQVTVSS	high polyreactivity
QVQLVESGGGLVQAGGSLRLSCAASGITVGYYAMGWYRLAPGKERELVAAITRGGGSTYYADSVKGRFTISRDNAKYTVYVQKNSLKPEDTAVYYCAAKTSGPGAGHDYWGQGTQVTVSS	high polyreactivity
